Measurements published in patent publication US20220106580A1.

Key:
asialofetuin (ASF) [1] = target: asialofetuin (ASF) (UniProt P12763); assay: saturation binding of GFP fluorescence to ASF adsorbed onto plastic, [GFP]=0-10 µM
asialofetuin (ASF) [2] = target: asialofetuin (ASF) (UniProt P12763); assay: cell-based or functional assay

Chain of UniProt P12763 (P12763 19-359 limits assumed): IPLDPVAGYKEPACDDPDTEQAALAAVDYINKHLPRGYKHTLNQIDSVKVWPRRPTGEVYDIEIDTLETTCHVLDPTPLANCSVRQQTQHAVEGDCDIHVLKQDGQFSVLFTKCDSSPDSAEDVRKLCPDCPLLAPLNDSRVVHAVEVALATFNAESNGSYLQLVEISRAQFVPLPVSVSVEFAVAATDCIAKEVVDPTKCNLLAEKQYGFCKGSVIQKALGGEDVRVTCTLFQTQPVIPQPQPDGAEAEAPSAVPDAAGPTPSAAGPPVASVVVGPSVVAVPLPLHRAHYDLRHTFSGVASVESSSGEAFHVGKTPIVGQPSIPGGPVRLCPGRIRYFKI

A concentration approaching saturation (asialofetuin (ASF) [1]) of 2 µM was found for “GFP-TT-G3 (superfolder green fluorescent protein - TriggerTrimer coiled-coil - human galectin-3; trimeric nanoassembly)” in this work.

A WT-G3 concentration at which insoluble aggregates with 7 uM ASF are detected at 420 nm (asialofetuin (ASF) [2]) of over 2.5 µM and an absorbance of 10 uM WT-G3 plus 7 uM ASF in PBS (asialofetuin (ASF) [2]) of 0.4 absorbance were found for “wild-type galectin-3 (WT-G3) (from UniProt P17931 2-250)” in this work.
